According to patent publication US20220017612A1 (TILOS THERAPEUTICS, published 2022):
Positions count from the first letter of the chain named. Names may count otherwise. One block for each binder: values may come before it.

Assays:
[1] = biological target: T1, human LAP-TGFβ1 overexpressed on cells (human, UniProt P01137 30-390); experiment: flow cytometry; black bar HT1080-huB1, grey bar HT1080
T1 construct: HT1080 or P3U1 cells overexpressing wild-type human LAP-TGFβ1; also called HT1080-huB1; HT1080-hβ1
T1 sequence (P01137 30-390): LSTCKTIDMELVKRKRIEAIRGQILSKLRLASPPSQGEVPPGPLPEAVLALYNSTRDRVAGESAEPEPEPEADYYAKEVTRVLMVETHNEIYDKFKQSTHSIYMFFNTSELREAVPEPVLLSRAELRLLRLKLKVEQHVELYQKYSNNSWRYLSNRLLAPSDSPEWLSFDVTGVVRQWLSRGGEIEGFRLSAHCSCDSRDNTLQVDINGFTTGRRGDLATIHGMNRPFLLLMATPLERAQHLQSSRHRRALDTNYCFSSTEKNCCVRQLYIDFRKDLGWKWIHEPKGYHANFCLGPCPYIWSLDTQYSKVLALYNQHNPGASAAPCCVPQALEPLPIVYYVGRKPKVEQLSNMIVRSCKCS

[2] = biological target: T1, human LAP-TGFβ1 overexpressed on cells; experiment: flow cytometry; black bar HT1080-huB1, grey bar HT1080-null
[3] = biological target: T2, human GARP and human LAP-TGFβ1 co-expressed on P3U1 cells (human, UniProt Q14392 20-662); experiment: flow cytometry competition on P3U1 cells with human GARP and LAP-TGFβ1; competitor of biotin-28G11 (5 µg competitor, 0.31 µg biotin-28G11)
T2 construct: whole, on cells; also called P3U1 cells over-expressing human GARP and LAP-TGFβ1
T2 sequence (chain, as listed by the source, chain 1 of 2): as the sequence (P01137 30-390) above
T2 sequence (Q14392 20-662, chain 2 of 2): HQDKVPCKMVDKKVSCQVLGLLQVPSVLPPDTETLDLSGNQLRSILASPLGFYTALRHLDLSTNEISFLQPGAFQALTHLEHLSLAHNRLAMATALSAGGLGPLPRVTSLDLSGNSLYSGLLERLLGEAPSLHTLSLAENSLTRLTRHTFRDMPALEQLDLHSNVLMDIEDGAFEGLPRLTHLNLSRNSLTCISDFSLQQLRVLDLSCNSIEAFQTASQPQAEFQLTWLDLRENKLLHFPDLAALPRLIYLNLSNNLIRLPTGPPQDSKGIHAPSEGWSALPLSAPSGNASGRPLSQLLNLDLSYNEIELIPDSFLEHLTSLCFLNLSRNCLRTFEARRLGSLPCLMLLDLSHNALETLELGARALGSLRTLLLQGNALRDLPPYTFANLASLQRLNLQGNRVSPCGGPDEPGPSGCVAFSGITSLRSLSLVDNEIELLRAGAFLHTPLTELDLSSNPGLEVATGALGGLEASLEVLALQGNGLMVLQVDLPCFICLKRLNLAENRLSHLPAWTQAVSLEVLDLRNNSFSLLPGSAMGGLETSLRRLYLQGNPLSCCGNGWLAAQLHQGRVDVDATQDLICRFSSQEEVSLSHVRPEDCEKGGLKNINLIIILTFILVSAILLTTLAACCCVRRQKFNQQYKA
Description: In the first experiment, the various humanized 28G11 candidates were tested for retention of binding to human LAP-TGFβ1 by competition with biotin-28G11 in a flow cytometry assay.
P3U1 cells over-expressing human GARP and LAP-TGFβ1 were placed in a round-bottom 96-well plate at density of 40,000 cells/well. The cells were washed with FACS buffer (25 mM HEPES, 2 mM EDTA, 2% fetal bovine serum in Hank's Balanced Salt Solution). 50 μL of 1:200 diluted TruStain Mouse FcX (BioLegend) was added to each well, followed by 50 μL of 100 ng/μL of humanized 28G11 construct (H0L0, H0L1, H0L2, H0L3, HILO, H1L1, H1L2, H1L3, H2L0, H2L1, H2L2, H2L3). The antibody was allowed to bind for 10 minutes. 50 μL of 6.2 ng/μL of biotinylated murine hybridoma 28G11_(hyb) was added to each well. The biotinylated antibody was allowed to bind for 10 minutes, and then the cells were washed twice with FACS buffer. The cells were labeled for 15 minutes with allophytocyanin-streptavidin (BioLegend), washed twice with FACS buffer, and analyzed by flow cytometry.

[4] = biological target: T1, human LAP-TGFβ1 overexpressed on cells; experiment: flow cytometry; black bar HT1080-huB1, grey bar HT1080; remark: listed apart in the source
[5] = biological target: T3, fusion protein of a human IgG1 Fc domain and human LAP-TGFβ1 (human, UniProt P01137 30-390); experiment: BLI, 2:1 model, component 2
T3 construct: printed both as Fc-huB1 and LAP-TGFβ-Fc; also called Fc-huB1; Fc-human LAP
T3 sequence (P01137 30-390 limits assumed): as the sequence (P01137 30-390) above
Description: (§1) The 20E6_H0.2aL1_IgG1 antibody was biotinylated using EZ-Link SulfoNHS-LC-Biotin (ThermoFisher). A streptavidin-functionalized tip was equilibrated in binding buffer (10 mM sodium phosphate, 150 mM sodium chloride, 1% (w/v) bovine serum albumin, 0.05% (w/v) sodium azide, pH 7.4) and dipped in a 10 μg/mL solution of biotinylated anti-LAP in binding buffer for 30 seconds to load the tip with antibody. The antibody-loaded tip was then washed in binding buffer and placed in a solution containing 0-24 nM of a fusion protein having a human IgG1 Fc domain fused to either human LAP-TGFβ1, human LAP-TGFβ2 or human LAP-TGFβ3. The antigen was allowed to bind to antibody for 5 minutes (association phase), and then the tip was moved to binding buffer (dissociation phase). The association and dissociation phases were fit to a 2:1 heterogenous ligand binding model to determine the binding rate constants. As shown in FIG. 21A and Table 17, 20E6_H0.2aL1_IgG1 bound with sub-nanomolar affinity to human LAP-TGFβ1, but not to human LAP-TGFβ2 (FIG. 21B) or LAP-TGFβ3 (FIG. 21C).
(§2) The binding of 20E6_H0.2aL1_IgG1 antibody and 20E6_H0.2aL1_hIgG4mut antibody to LAP-TGFβ1 of various species was examined by bio-layer interferometry using the method described in Example 12, except that the antibody-loaded tip was placed in a solution containing 0-24 nM of a fusion protein having a human IgG1 Fc domain fused to either mouse, rat, cynomolgus monkey, or human LAP-TGFβ1.

[6] = biological target: T4, fusion protein of a human IgG1 Fc domain and cynomolgus monkey LAP-TGFβ1 (human; cynomolgus monkey); experiment: BLI, 2:1 model, component 2
T4 construct: also called cynomolgus monkey LAP-TGFβ-Fc
Description: as §1, §2

[7] = biological target: T5, fusion protein of a human IgG1 Fc domain and mouse LAP-TGFβ1 (human; mouse, UniProt P04202 30-390); experiment: BLI, 2:1 model, component 2
T5 construct: also called mouse LAP-TGFβ-Fc
T5 sequence (P04202 30-390 limits assumed): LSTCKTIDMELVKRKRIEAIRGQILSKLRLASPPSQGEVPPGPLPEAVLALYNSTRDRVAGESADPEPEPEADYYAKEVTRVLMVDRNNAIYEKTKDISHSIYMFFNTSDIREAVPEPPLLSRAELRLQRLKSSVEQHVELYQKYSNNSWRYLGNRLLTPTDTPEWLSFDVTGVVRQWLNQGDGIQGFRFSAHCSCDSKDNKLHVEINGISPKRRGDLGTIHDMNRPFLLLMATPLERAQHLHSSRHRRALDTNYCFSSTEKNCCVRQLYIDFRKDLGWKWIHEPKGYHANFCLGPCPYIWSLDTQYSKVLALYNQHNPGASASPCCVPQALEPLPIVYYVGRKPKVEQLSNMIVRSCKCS
Description: as §1, §2

[8] = biological target: T6, fusion protein of a human IgG1 Fc domain and rat LAP-TGFβ1 (human; rat, UniProt P17246 30-390, limits assumed); experiment: BLI, 2:1 model, component 2
T6 construct: also called rat LAP-TGFβ-Fc
T6 sequence (P17246 30-390 limits assumed): as the sequence (P04202 30-390 limits assumed) above, with E93D, S99T, L131F, S134T, K202V counted along it
Description: as §1, §2

[9] = biological target: T3, fusion protein of a human IgG1 Fc …; experiment: BLI, 2:1 model, component 1
Description: as §1, §2

[10] = biological target: T4, fusion protein of a human IgG1 Fc …; experiment: BLI, 2:1 model, component 1
Description: as §1, §2

[11] = biological target: T5, fusion protein of a human IgG1 Fc …; experiment: BLI, 2:1 model, component 1
Description: as §1, §2

[12] = biological target: T6, fusion protein of a human IgG1 Fc …; experiment: BLI, 2:1 model, component 1
Description: as §1, §2

[13] = biological target: T1, human LAP-TGFβ1 overexpressed on cells; experiment: flow cytometry; black bar HT1080-huB1, grey bar HT1080; remark: listed apart in the source
Description: First, the ability of the humanized 20E6 candidates to bind to HT1080 cells overexpressing human TGFβ1 was tested by flow cytometry. HT1080 cells over-expressing human LAP-TGFβ1 were placed in a round-bottom 96-well plate at density of 40,000 cells/well. The cells were washed with FACS buffer (25 mM HEPES, 2 mM EDTA, 2% fetal bovine serum in Hank's Balanced Salt Solution). A volume (50 μL) of 1:200 diluted TruStain Human FcX (BioLegend) was added to each well, followed by 50 μL of 100 ng/μL of humanized 20E6 antibody construct. The antibody was allowed to bind for 20 minutes. The cells were washed twice with FACS buffer. The cells were labeled for 15 minutes with Alexa647-anti Human IgG (Jackson Immunoresearch), washed twice with FACS buffer, and analyzed by flow cytometry.

B1: 22F9_D102A (antibody, human IgG1, kappa, V domains shown)
VH: QVQLVQPGAEVVKPGASVKLSCKASGYTFTSYWMHWVKQRPGQGLEWIGMIHPNSGSTNYNEKFKSKATLTVDKSSSTAYMELSSLRSEDTAVYYCAYYDYAGFFDVWGQGTLVTVSS
VL: DIQLTQSPSSLSASVGDRVTITCRASKSVSTSGYSYMHWYQQKPGKAPKLLIYLASNLESGVPSRFSGSGSGTDFTLTISSLQPEDFATYYCQHSRELPYTFGGGTKVEIKR
notes: also called 22F9_H5L0 with VH D102A
binding result [1]: binds

B2: 22F9_H2.1 variant (antibody, human IgG1, kappa, V domains shown)
VH: B1 VH with N54Q, S76T
VL: B1 VL
binding result [2]: binds

B3: 22F9_H1.1 variant (antibody, human IgG1, kappa, V domains shown)
VH: B1 VH with N54Q, L70M, A79V
VL: B1 VL
binding result [2]: binds

B8: 28G11_H2L2 (antibody, human IgG1, kappa)
heavy: not shown
light: DIQMTQSPSSLSASVGDRVTITCRASQDISNYLNWYQQKPGKTVKLLIYYTSRLHSGVPSRFSGSGSGTDYTLTISSLQPEDVATYFCQQGDTLPWTFGQGTKLEIKRTVAAPSVFIFPPSDEQLKSGTASVVCLLNNFYPREAKVQWKVDNALQSGNSQESVTEQDSKDSTYSLSSTLTLSKADYEKHKVYACEVTHQGLSSPVTKSFNRGEC
binding result [3]: binds

B9: 20E6_H0.2aL1_hIgG4mut (antibody)
heavy: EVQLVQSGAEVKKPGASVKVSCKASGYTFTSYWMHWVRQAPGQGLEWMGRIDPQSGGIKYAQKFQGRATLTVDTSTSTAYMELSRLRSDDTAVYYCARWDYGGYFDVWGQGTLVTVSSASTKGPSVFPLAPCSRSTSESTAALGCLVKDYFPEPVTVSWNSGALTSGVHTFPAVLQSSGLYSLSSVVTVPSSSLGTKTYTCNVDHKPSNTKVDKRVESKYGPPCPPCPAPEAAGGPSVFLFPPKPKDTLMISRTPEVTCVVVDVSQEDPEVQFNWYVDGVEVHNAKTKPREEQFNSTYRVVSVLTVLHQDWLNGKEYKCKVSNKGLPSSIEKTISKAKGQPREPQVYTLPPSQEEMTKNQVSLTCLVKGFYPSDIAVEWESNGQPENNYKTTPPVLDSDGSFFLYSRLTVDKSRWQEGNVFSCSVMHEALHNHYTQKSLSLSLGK
light: B8 light with S30T, T43A, V83F
Kd [5]: 0.51 nM | koff [5]: 0.00036 s⁻¹ | kon [5]: 700000 M⁻¹ s⁻¹ | Kd [6]: 1.53 nM | koff [6]: 0.00143 s⁻¹ | kon [6]: 940000 M⁻¹ s⁻¹ | Kd [7]: 1.31 nM | koff [7]: 0.0011 s⁻¹ | kon [7]: 840000 M⁻¹ s⁻¹ | Kd [8]: 0.51 nM | koff [8]: 0.00087 s⁻¹ | kon [8]: 1.7e+06 M⁻¹ s⁻¹ | Kd [9]: 10.7 nM | koff [9]: 0.0303 s⁻¹ | kon [9]: 2.8e+06 M⁻¹ s⁻¹ | Kd [10]: 26.1 nM | koff [10]: 0.0524 s⁻¹ | kon [10]: 2e+06 M⁻¹ s⁻¹ | Kd [11]: 16.9 nM | koff [11]: 0.0478 s⁻¹ | kon [11]: 2.8e+06 M⁻¹ s⁻¹ | Kd [12]: 11.1 nM | koff [12]: 0.0406 s⁻¹ | kon [12]: 3.6e+06 M⁻¹ s⁻¹

B11: H0L0 (antibody, human IgG1, kappa, V domains shown)
VH: QVQLVQSGAEVKKPGASVKVSCKASGYTFTSYWMHWVRQAPGQGLEWMGRIDPNSGGIKYNEKFKSRVTMTRDTSISTAYMELSRLRSDDTAVYYCARWDYGGYFDVWGQGTLVTVSS
VL: DIQMTQSPSSLSASVGDRVTITCRASQDITNYLNWYQQKPGKAPKLLIYYTSRLHSGVPSRFSGSGSGTDFTLTISSLQPEDFATYYCQQGDTLPWTFGQGTKLEIKR
notes: also called 20E6_H0L0
binding result [13]: no binding (tested: single dose, 50 µL of 100 ng/µL)

B12: H3L0 (antibody, human IgG1, kappa, V domains shown)
VH: B11 VH with R38K, A40R, M48I, R67K, V68A, M70L, R72V, T74K, I76S
VL: B11 VL
notes: also called 20E6_H3L0
binding result [13]: no binding (tested: single dose, 50 µL of 100 ng/µL)

B13: H1L0 (antibody, human IgG1, kappa, V domains shown)
VH: B11 VH with M48I, M70L, R72V
VL: B11 VL
notes: also called 20E6_H1L0
binding result [13]: no binding (tested: single dose, 50 µL of 100 ng/µL)

B14: H2L0 (antibody, human IgG1, kappa, V domains shown)
VH: B11 VH with M48I, M70L, R72V, T74K, I76S
VL: B11 VL
notes: also called 20E6_H2L0
binding result [13]: no binding (tested: single dose, 50 µL of 100 ng/µL)

The remaining lines, values ahead:

binding result [1]: binds
B4: 22F9_N54Q (antibody, human IgG1, kappa, V domains shown)
VH: B1 VH with N54Q, A102D
VL: B1 VL
notes: also called 22F9_H5L0 with VH N54Q

binding result [2]: binds
B5: 22F9_H3.1 variant (antibody, human IgG1, kappa, V domains shown)
VH: B1 VH with K38R, R40A, N54Q, K67R, A68V
VL: B1 VL

binding result [1]: binds
B6: 22F9_H5.2L0 (antibody, human IgG1, kappa, V domains shown)
VH: B1 VH with N54Q
VL: B1 VL
notes: also called 22F9_H5L0 with the double N54Q/D102A mutation

binding result [3]: binds | binding result [4]: binds
B7: 28G11_H2L3 (antibody, human IgG1, kappa)
heavy: not shown
light: B8 light with V19L, T22S

binding result [3]: binds
B10: 28G11_H2L1 (antibody, human IgG1, kappa, V domains shown)
VH: EVQLVESGGGLVQPGGSLRLSCAASGFTFTDYYMSWVRQAPGKGLEWLGFIRNKPNGYTTEYSASVKGRFTISRDNSQSSLYLQMNSLKTEDTAVYYCARYTGGGYFDYWGQGTLLTVSS
VL: B11 VL with T30S, A43V, F71Y, F83V, Y87F
